Reference: publication PMC4358337, “How lamina-associated polypeptide 1 (LAP1) activates Torsin” (eLife, 2014)

Key:
Details in all cases: both partners purified
[1] = target: T1, luminal domain of human LAP1 (aa356-583) (human, UniProt Q5JTV8); experiment: crystal structure; LAP1-VHH-BS1 complex formed with twofold molar excess of VHH-BS1, SEC purified; crystals in 20% PEG 3350, 100 mM Bis-Tris pH 5.5, 200 mM ammonium sulfate, 18°C; 1.6 Å
T1 construct: luminal domain of human lamina-associated polypeptide 1 (LAP1), aa356-583; Tag removed with human rhinovirus 3C protease; disulfide bond C424-C582 seen in the structure; also called LAP1(356-583); Lamina-associated polypeptide 1; not shown: 6xHis-7xArg, N-terminal, cleaved

[2] = target: T2, luminal domain of human LAP1 (aa356-583), untagged, co-expressed with TorsinA (human, UniProt Q5JTV8); experiment: in vitro precipitation assay (competition); 100 pmol preformed TorsinA(E171Q):LAP1 complex with 200 pmol VHH, 4°C, 10 mM HEPES/NaOH pH 8.0, 150 mM NaCl, 10 mM MgCl2, 0.25 mM ATP; soluble and insoluble protein separated by centrifugation, SDS-PAGE
T2 construct: luminal domain of human lamina-associated polypeptide 1 (LAP1), aa356-583, untagged; From a second, kanamycin resistant modified pETDuet-1 vector; also called LAP1(356-583)

[3] = target: T3, human TorsinA(E171Q) (aa51-322) (human, UniProt O14656 51-322, E171Q); experiment: SEC; analytical gel filtration of the co-purified complexes, Superdex 200 10/300, 10 mM HEPES/NaOH pH 8.0, 150 mM NaCl, 10 mM MgCl2, 0.5 mM ATP; peak fractions by SDS-PAGE
T3 construct: human TorsinA, aa51-322 as printed; Captured by its tag on nickel resin; the nickel eluate was used directly for electron microscopy; Whether the tag was removed before the analytical gel filtration and the precipitation assay is not clearly told; not shown: 6xHis-7xArg, N-terminal, kept
T3 sequence (looked up): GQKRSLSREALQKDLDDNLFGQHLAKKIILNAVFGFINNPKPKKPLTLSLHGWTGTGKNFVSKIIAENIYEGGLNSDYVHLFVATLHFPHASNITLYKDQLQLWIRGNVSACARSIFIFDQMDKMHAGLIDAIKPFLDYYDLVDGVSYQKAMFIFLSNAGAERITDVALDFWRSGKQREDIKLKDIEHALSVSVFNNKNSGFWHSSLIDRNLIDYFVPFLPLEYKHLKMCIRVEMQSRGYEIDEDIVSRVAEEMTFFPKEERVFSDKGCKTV

T1 sequence (Q5JTV8 356-583): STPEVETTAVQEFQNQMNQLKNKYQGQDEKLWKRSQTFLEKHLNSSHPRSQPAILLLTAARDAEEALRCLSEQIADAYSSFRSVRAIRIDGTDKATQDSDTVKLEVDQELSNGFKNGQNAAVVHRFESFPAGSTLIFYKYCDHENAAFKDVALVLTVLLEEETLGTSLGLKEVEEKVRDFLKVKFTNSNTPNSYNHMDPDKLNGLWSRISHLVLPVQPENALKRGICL
T2 sequence (Q5JTV8 356-583): as above

Binder	binding result [1]	binding result [2]	stoichiometry N [3]
VHH-BS1 (VHH, alpaca VHH selected by phage display against LAP1; Raised by immunising an alpaca with recombinant LAP1; expressed from pET-28b(+); also called camelid single domain (VHH) antibody fragment against LAP1) VHH: QVQLVESGGGLVQAGGSLRLSCAASGRTLSSYAVGWFRQAPGLEREFVATISRSGGSTHYADSVKGRFTISRDNAKNTVYLQMNSLKPEDTAVYYCAATFTPDGSWYYTRGSSYDYWGQGTQVTVSS	binds	binds	–
luminal domain of human LAP1 (aa356-583), untagged, co-expressed with TorsinA (domain or fragment, luminal domain of human lamina-associated polypeptide 1 (LAP1), aa356-583, untagged; From a second, kanamycin resistant modified pETDuet-1 vector; also called LAP1(356-583)) not shown	–	–	1
luminal domain of human LULL1 (aa233-470), untagged, co-expressed with TorsinA (domain or fragment, luminal domain of human LULL1, aa233-470, untagged; The results once print LULL1(322-570); the methods print aa233-470 throughout; also called LULL1(233-470); Luminal domain-Like LAP1) not shown	–	–	1
